Reference: paper PMC4012256

Test: HEK293T adhesion to FN-coated surface, crystal violet, Ca2+-Mg2+
Settings: glycan lost; control: αVβ3(N339S)

B1: integrin αV subunit (of αVβ3): αV(N266Q)β3(N339S) (protein)
parent chain: MAFPPRRRLRLGPRGLPLLLSGLLLPLCRAFNLDVDSPAEYSGPEGSYFGFAVDFFVPSASSRMFLLVGAPKANTTQPGIVEGGQVLKCDWSSTRRCQPIEFDATGNRDYAKDDPLEFKSHQWFGASVRSKQDKILACAPLYHWRTEMKQEREPVGTCFLQDGTKTVEYAPCRSQDIDADGQGFCQGGFSIDFTKADRVLLGGPGSFYWQGQLISDQVAEIVSKYDPNVYSIKYNNQLATRTAQAIFDDSYLGYSVAVGDFNGDGIDDFVSGVPRAARTLGMVYIYDGKNMSSLYNFTGEQMAAYFGFSVAATDINGDDYADVFIGAPLFMDRGSDGKLQEVGQVSVSLQRASGDFQTTKLNGFEVFARFGSAIAPLGDLDQDGFNDIAIAAPYGGEDKKGIVYIFNGRSTGLNAVPSQILEGQWAARSMPPSFGYSMKGATDIDKNGYPDLIVGAFGVDRAILYRARPVITVNAGLEVYPSILNQDNKTCSLPGTALKVSCFNVRFCLKADGKGVLPRKLNFQVELLLDKLKQKGAIRRALFLYSRSPSHSKNMTISRGGLMQCEELIAYLRDESEFRDKLTPITIFMEYRLDYRTAADTTGLQPILNQFTPANISRQAHILLDCGEDNVCKPKLEVSVDSDQKKIYIGDDNPLTLIVKAQNQGEGAYEAELIVSIPLQADFIGVVRNNEALARLSCAFKTENQTRQVVCDLGNPMKAGTQLLAGLRFSVHQQSEMDTSVKFDLQIQSSNLFDKVSPVVSHKVDLAVLAAVEIRGVSSPDHVFLPIPNWEHKENPETEEDVGPVVQHIYELRNNGPSSFSKAMLHLQWPYKYNNNTLLYILHYDIDGPMNCTSDMEINPLRIKISSLQTTEKNDTVAGQGERDHLITKRDLALSEGDIHTLGCGVAQCLKIVCQVGRLDRGKSAILYVKSLLWTETFMNKENQNHSYSLKSSASFNVIEFPYKNLPIEDITNSTLVTTNVTWGIQPAPMPVPVWVIILAVLAGLLLLAVLVFVMYRMGFFKRVRPPQEEQEREQLQPHENGEGNSET
In the case of B1, the “other: cell adhesion, percent_of_wt” value is reported as “decreases”.
